Drawing on the supplement of paper PMC10567573, this text covers protein stability index for 37 sequences.

This series can be described thus: protein stability index of a GFP-peptide fusion (GPS, HEK-293T) (PSI 1-6); higher = more stable. Particulars: c terminus: a fixed tail appended.

± gives the standard deviation.
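Also: 24-mer peptide tiles fused after GFP, lentivirally expressed, FACS-sorted into six equal bins by GFP/DsRed ratio, decoded by Illumina sequencing, PSI is the read-weighted mean bin number.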

For the sequence AAIKVNDSVPFHLGWNSTERSLRL [MYORG], the protein stability index is, setting by setting: (treatment: DMSO) 2.61 ± 0.16; (treatment: MLN4924 1 uM, 8 h) 2.81 ± 0.38. In the same order, the values of AALNMSLGMVTPVNDLRGSDSIAY [ADD1] are 2.48 ± 0.37 and 2.62 ± 0.22. Turning to ADGGGAPPQGGCGGGGCDRYEPLP [KCNA3], the protein stability index worked out at 4.54 ± 0.32 (treatment: DMSO) and 4.75 ± 0.16 (treatment: MLN4924 1 uM, 8 h).

With ADLLAGFGGSFMAPSPSPVTPAQN [SNAP91], the protein stability index was determined as 4.16 ± 0.38 (treatment: DMSO) and 4.28 ± 0.24 (treatment: MLN4924 1 uM, 8 h). In the same order, the values of ADLRLGGQPAPPQLLLGRLFRWPD [SMAD6] are 2.84 ± 0.13 and 2.83 ± 0.23.

With ADWTQGLPWRFEELLTCSHWPSFF [TEX19], the protein stability index was 2.54 ± 0.67 (treatment: DMSO) and 2.6 ± 0.58 (treatment: MLN4924 1 uM, 8 h).

Take AEADEPTTHFQSIPDAFWWAVVTM [KCNA4]: the protein stability index was 2.04 ± 0.76 (treatment: DMSO) and 2.11 ± 0.22 (treatment: MLN4924 1 uM, 8 h). For AEAEALYSAYIRRCACAASSDESP [TTC32], in that order: 3.25 ± 0.28 and 3.42 ± 0.3. For the sequence AEDYLTWKEWGFTGVQEVLSALLR [SPAG8], the protein stability index is, setting by setting: (treatment: DMSO) 2.28 ± 0.33; (treatment: MLN4924 1 uM, 8 h) 2.19 ± 0.4. In the same order, the values of AEEFEQPTLSCEKYLTYDQLRKQK [ELOA2] are 4.71 ± 0.31 and 4.9 ± 0.11. For AEELALEQAKKESEDQKRLKQAKE [CHCHD3], in that order: 5.72 ± 0.22 and 5.41 ± 0.29. For AEESNPPLQDFPNSISSDKEATVP [MIA2], in that order: 5.41 ± 0.1 and 5.36 ± 0.25. On to AEGNNQAPGEEEEEEEEATNTHPP [CHGA], for which the protein stability index is, setting by setting: (treatment: DMSO) 5.35 ± 0.43; (treatment: MLN4924 1 uM, 8 h) 5.61 ± 0.34. For AEMPHTETVSPLPSSMDLLIQDSP [NANOGP8], in that order: 5.09 ± 0.19 and 5.32 ± 0.2. In the same order, the values of AEPDMDDPAYIAVLVLIFNAAKTC [INTS4] are 2.37 ± 0.47 and 2.12 ± 0.29. For AERLGVTFFEVSPLCNFNIIESFT [RAB40A], in that order: 2.32 ± 0.65 and 2.5 ± 0.46.

Consider AESFLLKSPIAPCSLDKRVILIFH [CDC25B], for which the protein stability index stood at 2.75 ± 0.73 (treatment: DMSO) and 2.68 ± 0.96 (treatment: MLN4924 1 uM, 8 h). As for AESRELPVRCAGDWLPRGLGWGGR [ALG2], the protein stability index was 2.53 ± 0.053 (treatment: DMSO) and 2.54 ± 0.29 (treatment: MLN4924 1 uM, 8 h). For AFDFDYGNCKYKVDCACLKENPEC [KMT2E], in that order: 3.53 ± 0.17 and 3.54 ± 0.42. For AFEFKKPVRPVSRGCLHSHGLQEG [CDC25A], in that order: 2.87 ± 0.28 and 2.82 ± 0.23.

With AGLDWQSLGQMKELGVIFYNCSCL [PLD5], the protein stability index by setting is: (treatment: DMSO) 3.12 ± 0.15; (treatment: MLN4924 1 uM, 8 h) 3.26 ± 0.43. For AGLLIIVLAIIAREGDCAPEEKIW [MAGEA3], the protein stability index is 3.25 ± 0.46 (treatment: DMSO) and 2.8 ± 0.34 (treatment: MLN4924 1 uM, 8 h). For AGPQSQVLCGVVMDRSLVQDAPLS [ADD1], in that order: 3.62 ± 0.2 and 3.59 ± 0.11.

For AGQLMGFFKGIDQDIERGVQSEIF [LYSMD4], the protein stability index is, setting by setting: (treatment: DMSO) 2.71 ± 0.33; (treatment: MLN4924 1 uM, 8 h) 2.75 ± 0.34. In the same order, the values of AGRGGAAGTAGVGETGSGDQAGGE [MYOZ1] are 5.63 ± 0.24 and 5.43 ± 0.32.

Regarding AGRPSLLRHDEVRTYFHEFGHVMH [NLN], the protein stability index reads like this: (treatment: DMSO) 2.48 ± 0.13; (treatment: MLN4924 1 uM, 8 h) 2.45 ± 0.47. As for AHKCLECGKCFSQNTHLTRHQRTH [ZNF263], the protein stability index by setting is: (treatment: DMSO) 4.92 ± 0.14; (treatment: MLN4924 1 uM, 8 h) 5 ± 0.3. For AIPIKSWFSDPSDTALLNLLPMLD [CTDNEP1], in that order: 2.33 ± 0.16 and 2.47 ± 0.3. For the sequence AKFDFLTRKHHCRRCGKCFCDRCC [ZFYVE21], the protein stability index turned out to be 3.08 ± 0.29 (treatment: DMSO) and 3.45 ± 0.44 (treatment: MLN4924 1 uM, 8 h).

The sequence AKNFHVKAVMKTSVLLSWEIPENY [PTPRD] showed a protein stability index (treatment: DMSO) of 2.89 ± 0.27. Regarding AKREETKAMESQRAYRFVQGKDWG [SPOPL], the protein stability index came out at 3.09 ± 0.61 (treatment: DMSO) and 3.59 ± 0.37 (treatment: MLN4924 1 uM, 8 h). In turn, ALASISHVAHVTITTKTADGKCAY [MLH1] gave a protein stability index (treatment: MLN4924 1 uM, 8 h) of 2.63 ± 0.3. As for ALKMTWHVHCFTCAACKTPIRNRA [PDLIM7], the protein stability index was found to be 2.5 ± 0.51 (treatment: DMSO) and 2.3 ± 0.58 (treatment: MLN4924 1 uM, 8 h). On to ALSYAQHTRQLISCGGDGGIVVWN [WDFY2], for which the protein stability index runs as follows: (treatment: DMSO) 2.16 ± 0.47; (treatment: MLN4924 1 uM, 8 h) 2.12 ± 0.23. For ALVSHPEVPLISFTGSQPTAERIT [ALDH8A1], in that order: 3.87 ± 0.2 and 3.87 ± 0.31. AMTGTFPAYGMSPSLSTITSTSSS [DVL3] came in with a protein stability index (treatment: DMSO) of 3.68 ± 0.24 and a protein stability index (treatment: MLN4924 1 uM, 8 h) of 3.61 ± 0.17.

ANFIEKVRFLEQQNAALRGELSQA [PRPH]: the protein stability index is 3.39 ± 0.12 (treatment: DMSO) and 3.36 ± 0.39 (treatment: MLN4924 1 uM, 8 h).
